According to patent publication US20210060157A1 (published 2021):
Values joined by “and” are separate entries in the source; they are usually repeats but may differ in a detail not shown here. Identical values can stand only once.

T1: peptide 420 (human)
T1 peptide: DGRQLEWGLERTRLSS

T2: peptide 418 (human)
T2 construct: Synthesized and spotted on a membrane (peptide array)
T2 peptide: GSCQDGRQLEWGLERT


Columns and labels:
[1] = biological target: T3, human complement component C6 (human, UniProt P13671 22-934); experiment: SPR, Biacore 2000
T3 construct: Protein was purified from human serum (113 kDa); biotinylated in the Fab ELISAs; also called human C6; hC6
T3 sequence (P13671 22-934 limits assumed): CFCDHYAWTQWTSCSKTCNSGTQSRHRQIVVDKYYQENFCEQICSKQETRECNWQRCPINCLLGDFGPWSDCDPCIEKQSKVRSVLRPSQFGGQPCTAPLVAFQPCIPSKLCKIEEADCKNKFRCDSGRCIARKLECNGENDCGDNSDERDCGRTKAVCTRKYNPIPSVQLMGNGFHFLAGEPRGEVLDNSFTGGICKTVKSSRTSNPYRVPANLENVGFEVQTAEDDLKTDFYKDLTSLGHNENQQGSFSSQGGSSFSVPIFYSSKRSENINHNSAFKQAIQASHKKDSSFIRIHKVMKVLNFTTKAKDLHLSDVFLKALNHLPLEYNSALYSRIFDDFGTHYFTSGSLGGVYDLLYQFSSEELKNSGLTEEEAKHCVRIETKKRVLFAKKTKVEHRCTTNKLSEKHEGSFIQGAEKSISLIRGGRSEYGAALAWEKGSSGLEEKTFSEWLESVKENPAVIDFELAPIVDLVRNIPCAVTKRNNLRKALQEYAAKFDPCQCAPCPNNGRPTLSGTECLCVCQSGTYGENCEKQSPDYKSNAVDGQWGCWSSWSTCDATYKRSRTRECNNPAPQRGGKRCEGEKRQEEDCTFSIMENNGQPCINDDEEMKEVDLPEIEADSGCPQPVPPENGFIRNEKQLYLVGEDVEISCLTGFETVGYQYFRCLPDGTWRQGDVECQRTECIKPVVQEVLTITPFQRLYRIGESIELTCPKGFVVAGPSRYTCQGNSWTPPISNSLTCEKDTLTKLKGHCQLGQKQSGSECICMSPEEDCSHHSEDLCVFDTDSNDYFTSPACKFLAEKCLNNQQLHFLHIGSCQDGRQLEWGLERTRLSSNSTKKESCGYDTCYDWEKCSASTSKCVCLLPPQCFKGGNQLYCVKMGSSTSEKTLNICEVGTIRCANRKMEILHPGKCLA
Protocol: (§1) Binding Kinetics: To investigate kinetics of 7E5 binding to C6, surface plasmon resonance measurement in a BIACORE 2000 (GE Healthcare) equipped with a research-grade CM5 sensor chip was used. The ligand (C6, 113 kDa) was immobilized using amine-coupling chemistry. The surface of flow cell two was activated for 7 minutes with a 1:1 mixture of 0.1 M NHS (N-hydroxysuccinimide) and 0.4 M EDC (3-(N,N-dimethylamino) propyl-N-ethylcarbodiimide) at a flow rate of 5 μl/min. The ligand at a concentration of 10 μg/ml in 10 mM sodium acetate, pH 5.0, was immobilized at a density of 955 RU. The surface was blocked with a 7 minute injection of 1 M ethanolamine, pH 8.0.
(§2) To collect kinetic binding data, the analytes (anti C6-antibodies, 150 kDa) in 10 mM HEPES, 150 mM NaCl, 0.005% P20, pH 7.4, were injected over the two flow cells at a flow rate of 30 μl/min and at a temperature of 25° C. The injected concentrations differ per antibody. Data were collected at a rate of 1 Hz. The complex was allowed to associate and dissociate for 90 and 300 seconds, respectively. The surfaces were regenerated with a 10 second injection of 0.1 M HCl. Duplicate injections (in random order) of each sample and a buffer blank were flowed over the two surfaces.
(§3) The data were fit to a simple 1:1 interaction model using the global data analysis option available within BiaEvaluation 4.1 software.

[2] = biological target: T3, human complement component C6; experiment: SPR, Biacore 2000, C6 amine-coupled to CM5 chip, antibody as analyte, 25 C, 1:1 model
Protocol: as §1, §2, §3

peptide 420 = biological target: T1, peptide 420; experiment: alanine scan on selected peptides (peptide array)
Protocol: Subsequently, an alanine scan (in which alanine is used to replace amino acids one by one) on selected peptides was performed to help pinpoint the epitope.

peptide 418 = biological target: T2, peptide 418; experiment: peptide array of overlapping 16mer C6 peptides on a membrane
Protocol: Peptide arrays were used to determine the epitope of 7E5 in human C6. Consecutive overlapping 16mer peptides (peptides 16 amino acids long, overlapping 14 amino acids) from the C6 protein sequence were synthesized and spotted in a grid pattern on a membrane. The membrane was then incubated with 7E5 antibody to detect which peptide was recognized by the antibody.

[3] = biological target: T3, human complement component C6; experiment: SPR, Biacore 2000, derived from kd
Protocol: as §1, §2, §3

[4] = biological target: T3, human complement component C6; experiment: ELISA on biotinylated hC6 and Biacore 3000 off-rate screening of periplasmic extracts on immobilized hC6

Binder | binding result [4] | further results
rat anti-human C6 monoclonal antibody 7E5 (antibody, V domains shown, Whole antibody (150 kDa analyte in SPR) from a rat hybridoma; also called 7E5 mAb; supernatant #11) VH: EVQLVESDGGLVQPGGSLKLSCVASGFSFSDYYMAWVRQGPTKGLEWVATINYDGSSTYYRESVKGRFTISRDNAKRTLYLQMDSLRSEDTATYYCSRPSTEALFAYWGHGTLVTVSS VL: DVVLTQTPSTLSATIGQSVSISCRSSQSLLNDVGNTYLYWYLQRPGQSPQLLIYLVSDLGSGVPNRFSGSGSGTDFTLKISGVEAEDLGIYYCMQASHAPYTFGAGTNLELK |  | half-life of the 7E5-C6 complex [1]: > 40 h; Kd [2]: 253 pM; koff [2]: 4.27e-06 s⁻¹; kon [2]: 16900 M⁻¹ s⁻¹; binding result (peptide 420): binds; binding result (peptide 418): binds; t1/2 (complex half life) [3]: 45 h and 45.1 h
humanized 7E5 Fab 7F06 (Fab, V domains shown, also called 7F6) VH: EVQLVESGGGLVQPGGSLKLSCAASGFTFRDYYMAWVRQGPGKGLEWVATINYDGSSTYYRESVKGRFTISRDNAKNSLYLQMDSLRAEDTAVYYCARPSTEALFAYWGHGTLVTVSS VL: DVVLTQTPLTLSVTPGQPVSISCRSSQSLLNDVGNTYLYWYLQKPGQSPQLLIYLVSDLGSGVPNRFSGSGSGTDFTLKISRVEAEDVGVYYCMQASHAPYTFGAGTRLELK | binds | 
humanized 7E5 Fab 7E11 (Fab, V domains shown) VH: EVQLVESGGGLVQPGGSLRLSCVASGFTFSDYYMAWVRQAPGKGLEWVATINYDGSSTYYRESVKGRFTISRDNAKNTLYLQMDSLRAEDTAVYYCARPSTEALFAYWGQGTLVTVSS VL: DIVLTQTPLSLSATPGQSVSISCRSSQSLLNDVGNTYLYWYLQRPGQSPQLLIYLVSDLGSGVPDRFSGSGSGTDFTLKISRVEAEDVGVYYCMQASHAPYTFGAGTNLEIK | binds | 
humanized 7E5 Fab 8F07 (Fab, V domains shown, also called 8F7) VH: EVQLVESGGGLVQPGGSLRLSCAASGFSFSDYYMAWVRQGPGKGLEWVATINYDGSSTYYRESVKGRFTISRDNAKNTLYLQMNSLRSEDTATYYCARPSTEALFAYWGHGTLVTVSS VL: DVVLTQTPLTLSVTPGQSVSISCRSSQSLLNDVGNTYLYWYLQKPGQSPQLLIYLVSDLGSGVPDRFSGSGSGTDFTLKISGVEAEDVGVYYCMQASHAPYTFGAGTKLEIK | binds | 
humanized 7E5 Fab 8G09 (Fab, V domains shown) VH: EVQLVESDGGLVQPGGSLRLSCVASGFTFSDYYMAWVRQAPGKGLEWVATINYDGSSTYYRESVKGRFTISRDNAKRTLYLQMDSLRAEDTAVYYCARPSTEALFAYWGQGTLVTVSS VL: DIVLTQTPLTLSVTPGQSVSISCRSSQSLLNDVGNTYLYWYLQKPGQSPQLLIYLVSDLGSGVPNRFSGSGSGTDFTLKISRVEAEDVGVYYCMQASHAPYTFGAGTRLEIK | binds | 

Further lines, with some results ahead:

binding result [4] | Binder | further results
binds | humanized 7E5 Fab 7E12 (Fab, V domains shown) VH: EVQLVESDGGLVQPGGSLKLSCAASGFTFSDYYMAWVRQGPGKGLEWVATINYDGSSTYYRESVKGRFTISRDNAKNTLYLQMNSLRAEDTATYYCARPSTEALFAYWGHGTLVTVSS VL: DVVLTQTPSTLSVTPGQPASISCRSSQSLLNDVGNTYLYWYLQKPGQSPQLLIYLVSDLGSGVPNRFSGSGSGTDFTLKISRVEAEDVGIYYCMQASHAPYTFGQGTNLEIK | 
binds | humanized 7E5 Fab 7F11 (Fab, V domains shown) VH: EVQLVESDGGLVQPGGSLKLSCAASGFTFSDYYMAWVRQGPTKGLEWVATINYDGSSTYYRESVKGRFTISRDNAKNTLYLQMNSLRAEDTAVYYCSRPSTEALFAYWGHGTLVTVSS VL: DVVLTQTPSTLSVTPGQPVSISCRSSQSLLNDVGNTYLYWYLQKPGQSPQLLIYLVSDLGSGVPNRFSGSGSGTDFTLKISGVEAEDVGVYYCMQASHAPYTFGAGTRLEIK | 
binds | humanized 7E5 Fab 7F02 (Fab, V domains shown, also called 7F2) VH: EVQLVESGGGLVQPGGSLKLSCAASGFTFSDYYMAWVRQGPGKGLEWVATINYDGSSTYYRESVKGRFTISRDNAKNSLYLQMNSLRSEDTAVYYCARPSTEALFAYWGHGTLVTVSS VL: DVVMTQTPSTLSATPGQSASISCRSSQSLLNDVGNTYLYWYLQKPGQSPQLLIYLVSDLGSGVPNRFSGSGSGTDFTLKISRVEAEDVGIYYCMQASHAPYTFGAGTRLELK | 
